Test results published in patent US20180217151A1.

Columns and labels:
[1] = target: CD45RA antigen on human PBMCs (human) (UniProt P08575); experiment: flow cytometry, human PBMCs, biotinylated Fab 1 µg/mL, SA-APC, before washing; median of control (background) 0.1
[2] = target: CD45RA antigen on human PBMCs (human) (UniProt P08575); experiment: flow cytometry, human PBMCs, biotinylated Fab 1 µg/mL, SA-APC, after five washing steps; enables reversible labeling: yes
[3] = target: CD45RA antigen on human PBMCs (human) (UniProt P08575); experiment: flow cytometry, human PBMCs, biotinylated Fab 1 µg/mL, SA-APC, after five washing steps; median of control (background) 0.1; enables reversible labeling: yes
[4] = target: CD8 antigen on human PBMCs (human) (UniProt P01732); experiment: flow cytometry, human PBMCs, biotinylated Fab 1 µg/mL, SA-APC, before washing; median of control (background) 0.1
[5] = target: CD8 antigen on human PBMCs (human) (UniProt P01732); experiment: flow cytometry, human PBMCs, biotinylated Fab 1 µg/mL, SA-APC, after five washing steps; enables reversible labeling: no
[6] = target: recombinant CD8 antigen (not stated (the Fab labels human PBMCs)); experiment: SPR (Biacore), recombinant antigen (extracellular domain) immobilized by amine coupling, Fab as analyte, 1:1 binding mass transfer model
[7] = target: CD8 antigen on human PBMCs (human) (UniProt P01732); experiment: flow cytometry, human PBMCs, biotinylated Fab 1 µg/mL, SA-APC, after five washing steps; median of control (background) 0.1; enables reversible labeling: no
[8] = target: CD19 antigen on human PBMCs (human) (UniProt P15391); experiment: flow cytometry, human PBMCs, biotinylated Fab 1 µg/mL, SA-APC, before washing; median of control (background) 0.25
[9] = target: CD19 antigen on human PBMCs (human) (UniProt P15391); experiment: flow cytometry, human PBMCs, biotinylated Fab 1 µg/mL, SA-APC, after five washing steps; enables reversible labeling: yes
[10] = target: recombinant CD19 antigen (not stated (the Fab labels human PBMCs)) (UniProt P15391); experiment: SPR (Biacore), recombinant antigen (extracellular domain) immobilized by amine coupling, Fab as analyte, 1:1 binding mass transfer model
[11] = target: CD19 antigen on human PBMCs (human) (UniProt P15391); experiment: flow cytometry on human PBMCs, SA-APC median after five washing steps; background 0.2

Sequence of recombinant CD8 antigen (not stated (the Fab labels human PBMCs)) (P01732 22-182): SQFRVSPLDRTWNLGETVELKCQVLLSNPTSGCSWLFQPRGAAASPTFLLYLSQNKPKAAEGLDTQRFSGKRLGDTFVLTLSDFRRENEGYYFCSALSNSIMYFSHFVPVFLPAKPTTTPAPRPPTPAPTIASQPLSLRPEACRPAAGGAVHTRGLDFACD
Sequence of CD19 antigen on human PBMCs (human) (P15391 20-556): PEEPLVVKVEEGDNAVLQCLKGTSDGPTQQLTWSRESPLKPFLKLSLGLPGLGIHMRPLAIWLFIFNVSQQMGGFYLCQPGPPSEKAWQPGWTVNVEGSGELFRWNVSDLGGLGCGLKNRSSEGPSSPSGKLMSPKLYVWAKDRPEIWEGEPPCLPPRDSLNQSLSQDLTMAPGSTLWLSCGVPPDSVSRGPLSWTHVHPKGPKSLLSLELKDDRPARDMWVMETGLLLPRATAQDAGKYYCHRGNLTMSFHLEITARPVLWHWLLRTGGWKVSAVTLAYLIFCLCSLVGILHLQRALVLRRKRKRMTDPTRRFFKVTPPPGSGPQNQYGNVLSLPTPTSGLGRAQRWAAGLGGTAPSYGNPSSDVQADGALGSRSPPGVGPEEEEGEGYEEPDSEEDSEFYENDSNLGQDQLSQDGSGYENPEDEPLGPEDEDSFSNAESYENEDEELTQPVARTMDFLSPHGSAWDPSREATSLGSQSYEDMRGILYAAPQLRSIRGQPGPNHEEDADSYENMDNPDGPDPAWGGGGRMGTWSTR
Sequence of recombinant CD19 antigen (not stated (the Fab labels human PBMCs)) (P15391 20-291): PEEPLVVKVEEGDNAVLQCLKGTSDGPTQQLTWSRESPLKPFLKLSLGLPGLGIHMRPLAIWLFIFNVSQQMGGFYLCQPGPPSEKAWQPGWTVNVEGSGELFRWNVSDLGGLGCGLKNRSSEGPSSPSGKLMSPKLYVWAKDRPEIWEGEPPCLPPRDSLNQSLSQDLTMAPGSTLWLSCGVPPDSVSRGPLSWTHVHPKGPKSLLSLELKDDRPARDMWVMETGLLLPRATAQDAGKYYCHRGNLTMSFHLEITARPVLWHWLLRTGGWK
Sequence of CD8 antigen on human PBMCs (human) (P01732 22-235): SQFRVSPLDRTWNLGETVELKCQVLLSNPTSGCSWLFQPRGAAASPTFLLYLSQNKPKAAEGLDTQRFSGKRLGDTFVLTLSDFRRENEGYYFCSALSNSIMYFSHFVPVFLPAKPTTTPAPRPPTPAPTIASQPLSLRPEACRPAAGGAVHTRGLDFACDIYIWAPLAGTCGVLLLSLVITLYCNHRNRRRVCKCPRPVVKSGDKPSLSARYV

B1: MEM56-LAV rFab (Fab, V domains shown)
VH: QVQLQQSGAELAKPGASVKMSCKASGYNFTRYWMHWIKQRPGQGLEWIGYINPNTGHTEYNQKFKDKATLTADKSSSTAYMQLSSLTSEDSAVYYCATYYYGSRRDAGQGTTLTVSS
VL: QIVLTQSPAIMSASLGERVTMTCTTSSSVSSSYLHWYQQKPGSSPKLWIYSTSNLASGVPARFSGSGSGTSYSLTISTVEAEDAATYYCHQYHRSPLTFGAGTKLELKR
modifications: In the cell assay the Fab was biotinylated with a thiol-reactive reagent (e.g. maleimide-PEO2-biotin) on cysteines of the reduced disulfide bridge; positions not stated.
**Q.** B1 was tested. Which median value (i) [1] did it give?
**A.** Its median value (i) is 2.9.

**Q.** What about the % median value of the detected label after Fab removal (before = 100%) [2] of the same binder?
**A.** The % median value of the detected label after Fab removal (before = 100%) was 6.9%.

**Q.** And the median value after Fab removal (ii) [3]?
**A.** The median value after Fab removal (ii) was 0.2.

B2: OKT8 pFab (Fab, from another filing, V domains shown)
VH: EVQLQQSGAELVKPGASVKLSCTASGFNIKDTYIHFVRQRPEQGLEWIGRIDPANDNTLYASKFQGKATITADTSSNTAYMHLCSLTSGDTAVYYCGRGYGYYVFDHWGQGTTLTVSS
VL: DVQINQSPSFLAASPGETITINCRTSRSISQYLAWYQEKPGKTNKLLIYSGSTLQSGIPSRFSGSGSGTDFTLTISGLEPEDFAMYYCQQHNENPLTFGAGTKLELK
**Q.** For B2, which median value (i) [4] is on record?
**A.** Its median value (i) is 45.

**Q.** And the % median value of the detected label after Fab removal (before = 100%) [5]?
**A.** Its % median value of the detected label after Fab removal (before = 100%) is 51%.

**Q.** And the Kd [6]?
**A.** Its Kd is 0.62 nM.

**Q.** And the koff [6]?
**A.** Its koff is 0.0013 s⁻¹.

**Q.** What about the kon [6] of the same binder?
**A.** The kon was 2.1e+06 M⁻¹ s⁻¹.

**Q.** What about the median value after Fab removal (ii) [7] of the same binder?
**A.** The median value after Fab removal (ii) was 23.

B3: SJ25-C1 pFab (Fab, from another filing, V domains shown)
VH: EVKLQQSGAELVRPGSSVKISCKASGYAFSSYWMNWVKQRPGQGLEWIGQIYPGDGDTNYNGKFKGQATLTADKSSSTAYMQLSGLTSEDSAVYFCARKTISSVVDFYFDYWGQGTTVTVSS
VL: DIELTQSPKFMSTSVGDRVSVTCKASQNVGTNVAWYQQKPGQSPKPLIYSATYRNSGVPDRFTGSGSGTDFTLTITNVQSKDLADYFCQQYNRYPYTSGGGTKLEI
**Q.** B3 was tested. Which median value (i) [8] did it give?
**A.** Its median value (i) is 27.

**Q.** What about the % median value of the detected label after Fab removal (before = 100%) [9] of the same binder?
**A.** The % median value of the detected label after Fab removal (before = 100%) was 4.4%.

**Q.** And the Kd [10]?
**A.** Its Kd is 7 nM.

**Q.** What about the koff [10] of the same binder?
**A.** The koff was 0.0031 s⁻¹.

**Q.** What about the kon [10] of the same binder?
**A.** Its kon is 440000 M⁻¹ s⁻¹.

**Q.** What about the median of remaining detectable label after removal of Fab [11] of the same binder?
**A.** Its median of remaining detectable label after removal of Fab is 1.2.
